Assay results published in patent publication US20200270125A1 (OMEROS, published 2020).
Where a chain is given by its changes, count along the chain named. Where two headings read alike, the source gives them in different places.

What was measured:
[1] = target: T1, human MASP-3 (construct not stated) (human); assay: cell-based or functional assay
T1 chain: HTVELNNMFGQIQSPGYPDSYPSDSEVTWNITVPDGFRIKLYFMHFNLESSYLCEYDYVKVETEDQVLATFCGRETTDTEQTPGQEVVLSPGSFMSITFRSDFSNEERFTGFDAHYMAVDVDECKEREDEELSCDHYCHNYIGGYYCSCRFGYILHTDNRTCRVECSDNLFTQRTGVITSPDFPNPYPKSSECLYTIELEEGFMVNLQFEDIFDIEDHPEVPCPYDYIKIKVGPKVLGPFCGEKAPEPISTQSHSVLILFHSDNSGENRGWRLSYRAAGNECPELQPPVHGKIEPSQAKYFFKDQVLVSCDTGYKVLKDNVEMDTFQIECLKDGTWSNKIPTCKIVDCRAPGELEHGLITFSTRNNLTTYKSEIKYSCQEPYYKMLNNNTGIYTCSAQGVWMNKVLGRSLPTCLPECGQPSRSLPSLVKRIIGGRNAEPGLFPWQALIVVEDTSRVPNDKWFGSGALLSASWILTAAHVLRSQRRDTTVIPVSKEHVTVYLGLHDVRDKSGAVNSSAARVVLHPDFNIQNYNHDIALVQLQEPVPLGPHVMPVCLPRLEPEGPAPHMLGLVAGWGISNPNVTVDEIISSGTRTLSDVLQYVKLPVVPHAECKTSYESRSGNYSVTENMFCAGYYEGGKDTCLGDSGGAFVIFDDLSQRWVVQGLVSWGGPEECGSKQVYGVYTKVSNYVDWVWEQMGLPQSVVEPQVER

[2] = target: T2, human MASP-3 CCP1-CCP2-SP fragment (human); assay: cell-based or functional assay
T2 chain: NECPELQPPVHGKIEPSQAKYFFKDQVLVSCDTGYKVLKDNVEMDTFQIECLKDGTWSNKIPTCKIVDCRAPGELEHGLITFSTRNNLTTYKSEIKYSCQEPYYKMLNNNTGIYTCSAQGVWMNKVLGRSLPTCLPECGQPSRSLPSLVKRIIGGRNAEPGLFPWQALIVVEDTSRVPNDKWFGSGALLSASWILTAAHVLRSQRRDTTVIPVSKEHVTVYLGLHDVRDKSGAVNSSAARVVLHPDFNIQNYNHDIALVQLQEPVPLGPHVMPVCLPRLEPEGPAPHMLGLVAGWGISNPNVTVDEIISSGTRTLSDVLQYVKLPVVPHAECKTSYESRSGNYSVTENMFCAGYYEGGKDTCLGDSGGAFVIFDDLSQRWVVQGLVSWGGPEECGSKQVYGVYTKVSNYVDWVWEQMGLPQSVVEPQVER

[3] = target: T2, human MASP-3 CCP1-CCP2-SP fragment; assay: sandwich ELISA, MASP-3 CCP1-CCP2-SP captured by αM3-259
Method: (§1) The plate was then washed (PBS-T, 0.05%) and the candidate MASP-3 antibodies were added followed by incubation for one hour at room temperature. The plate was washed (PBS-T, 0.05%) and a detection antibody was added (mouse anti-human kappa-HRP, SouthernBiotech #9230-05) for one hour at room temperature. After another wash (PBS-T, 0.05%) the plate was developed (5 minutes) with OPT EIA TMB (BD Biosciences #555214). Absorbance reading at A450 was measured using the Spectramax M5e plate reader.

[4] = target: T3, recombinant full-length mouse MASP-3 (mouse); assay: sandwich ELISA, full-length mouse MASP-3 captured by αM3-259
T3 construct: Entry is with leader; also called mouse full length MASP-3
T3 chain: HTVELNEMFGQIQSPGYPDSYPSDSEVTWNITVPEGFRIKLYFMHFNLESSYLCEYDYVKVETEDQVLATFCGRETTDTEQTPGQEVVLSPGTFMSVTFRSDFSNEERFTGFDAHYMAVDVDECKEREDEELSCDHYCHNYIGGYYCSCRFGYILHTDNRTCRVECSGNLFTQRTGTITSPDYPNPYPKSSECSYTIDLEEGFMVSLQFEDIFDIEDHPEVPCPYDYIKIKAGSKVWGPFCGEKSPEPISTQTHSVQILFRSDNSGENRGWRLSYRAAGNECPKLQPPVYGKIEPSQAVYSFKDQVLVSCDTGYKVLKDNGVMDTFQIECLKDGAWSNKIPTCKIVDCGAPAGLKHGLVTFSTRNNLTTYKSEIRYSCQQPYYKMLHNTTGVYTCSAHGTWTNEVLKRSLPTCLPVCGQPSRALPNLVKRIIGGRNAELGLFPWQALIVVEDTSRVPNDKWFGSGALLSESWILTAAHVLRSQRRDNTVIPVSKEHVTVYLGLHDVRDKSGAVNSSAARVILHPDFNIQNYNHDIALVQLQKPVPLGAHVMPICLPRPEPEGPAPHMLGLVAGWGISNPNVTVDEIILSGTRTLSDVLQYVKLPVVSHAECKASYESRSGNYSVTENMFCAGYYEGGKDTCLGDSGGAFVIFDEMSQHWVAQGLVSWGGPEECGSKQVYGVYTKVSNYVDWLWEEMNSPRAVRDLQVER
Method: as §1

[5] = target: T1, human MASP-3 (construct not stated); assay: not described at this place
[6] = target: T4, recombinant human MASP-1A (S646A, CCP1-CCP2-SP fragment) (human, UniProt P48740 298-699, limits assumed); assay: ELISA: recombinant MASP-1A (S646A, CCP1-CCP2-SP) coated directly on the plate, A450
T4 chain: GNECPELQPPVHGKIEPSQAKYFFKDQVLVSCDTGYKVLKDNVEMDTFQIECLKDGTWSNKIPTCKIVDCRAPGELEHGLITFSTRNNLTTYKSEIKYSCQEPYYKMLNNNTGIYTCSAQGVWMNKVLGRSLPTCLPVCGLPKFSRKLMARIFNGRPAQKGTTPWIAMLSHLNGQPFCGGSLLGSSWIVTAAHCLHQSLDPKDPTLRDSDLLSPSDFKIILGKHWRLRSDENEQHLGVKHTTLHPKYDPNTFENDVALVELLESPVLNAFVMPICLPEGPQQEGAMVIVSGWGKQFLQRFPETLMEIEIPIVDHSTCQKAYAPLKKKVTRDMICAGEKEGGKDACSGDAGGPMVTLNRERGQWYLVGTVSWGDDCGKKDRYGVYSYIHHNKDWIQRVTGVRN
Method: as §1

[7] = target: T5, recombinant human MASP-2 (CCP1-CCP2-SP fragment) (human, UniProt O00187 298-686, limits assumed); assay: ELISA: recombinant MASP-2 (CCP1-CCP2-SP) coated directly on the plate, A450
T5 construct: domain: CCP1-CCP2-SP fragment
T5 sequence (O00187 298-686 limits assumed): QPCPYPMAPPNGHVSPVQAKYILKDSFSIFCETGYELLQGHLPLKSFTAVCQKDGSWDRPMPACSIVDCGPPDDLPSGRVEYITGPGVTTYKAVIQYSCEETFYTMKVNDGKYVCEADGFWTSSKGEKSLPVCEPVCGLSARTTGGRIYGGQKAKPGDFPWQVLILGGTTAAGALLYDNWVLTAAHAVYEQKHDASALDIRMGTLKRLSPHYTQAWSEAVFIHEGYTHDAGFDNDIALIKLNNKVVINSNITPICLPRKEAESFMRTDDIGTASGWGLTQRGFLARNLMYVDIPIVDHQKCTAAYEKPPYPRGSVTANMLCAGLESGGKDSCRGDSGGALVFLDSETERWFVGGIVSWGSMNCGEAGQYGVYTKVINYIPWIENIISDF
Method: as §1

[8] = target: T1, human MASP-3 (construct not stated); assay: ELISA, monovalent Fab
[9] = target: T1, human MASP-3 (construct not stated); assay: ELISA, monovalent Fab

B1: MASP-3 mAb 1A10 (mouse-human chimeric IgG4) (antibody, V domains shown)
VH: QVQLKQSGPELVKPGASVKLSCKASGYTFTSNDINWVKQRPGQGLEWIGWIYPRDGTTKYNEKFTDKATLTVDVSSSTAFMELHRLTSEDSAVYFCSSVEDSYWGQGTLVTVSS
VL: DIVMTQSPSSLAVSAGEKVTMSCKSSQSLLISRTRKNYLSWYQQKPGQSPKLLIYWASTRESGVPDRFTGSGSGTDFTLTISSVQAEDLAVYYCKQSYNLYTFGGGTKLEIKR
notes: The light chain of 1A10 was not identified
Inhibition of Rabbit Erythrocyte Lysis (IC50 nM), 10% factor D-depleted human serum [1]: 0.2 nM
inhibition of MASP-3-dependent fluorogenic tripeptide (BOC-V-P-R-AMC) cleavage [2]: 29.8 nM
EC50 [3]: 0.241 nM
EC50 [4]: 0.15 nM
binding affinity [5]: ≤ 500 pM
binding result [6]: no binding (tested: about 20 nM (log10 about 1.3))
binding result [7]: no binding (tested: about 20 nM (log10 about 1.3))

B2: h10D12_45-21 Fab (VH-45 and VL-21) (Fab, V domains shown)
VH: QIQLVQSGSELKKPGASVKVSCKASGYIFTSYGMSWVRQAPGKGLKWMGWINTYSGVPTYADDFKGRFVFSLDTSVRTPYLQISSLKAEDTAVYFCARGGEAMDYWGQGTLVTVSS
VL: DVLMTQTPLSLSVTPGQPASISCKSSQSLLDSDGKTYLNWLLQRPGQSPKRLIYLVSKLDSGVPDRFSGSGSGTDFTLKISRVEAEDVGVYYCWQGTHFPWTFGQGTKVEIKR
notes: Humanized monovalent Fab; also called h10D12_45-21 parental Fab
EC50 [8]: 0.108 nM
EC50 [9]: 0.108 nM

B3: h10D12_49-21 Fab (VH-49 and VL-21) (Fab, V domains shown)
VH: B2 VH with V93T
VL: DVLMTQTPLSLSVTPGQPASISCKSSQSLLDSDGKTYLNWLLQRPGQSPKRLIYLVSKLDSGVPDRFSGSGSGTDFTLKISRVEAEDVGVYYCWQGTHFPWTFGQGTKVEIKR
notes: Humanized monovalent Fab
EC50 [9]: 0.115 nM

B4: MASP-3 mAb 2F2 (mouse-human chimeric IgG4) (antibody, V domains shown)
VH: QVQLKQSGAELVTPGASVKMSCKASGYTFTTYPIEWMKQNHGKSLEWIGNFHPYNDDTKYNEKFKGKATLTVEKSSNTVYLELSRLTSDDSAVYFCARRVYYSYFWFGYWGHGTLVTVSS
VL: DIVMTQSQKFMSTSVGDRVNVTCKASQNVGTHVAWYQQKPGQSPKALIYSASYRYSGVPDRFTGSGSGTDFTLTISNVQSEDLAEYFCQQYNSYPRALTFGAGTKLELKR
Inhibition of Rabbit Erythrocyte Lysis (IC50 nM), 10% factor D-depleted human serum [1]: 0.8 nM
EC50 [3]: 0.057 nM
EC50 [4]: 0.105 nM
binding affinity [5]: ≤ 500 pM
binding result [6]: no binding (tested: about 20 nM (log10 about 1.3))
binding result [7]: no binding (tested: about 20 nM (log10 about 1.3))

B5: h4D5_19-1 Fab (VH-19 and VL-1) (Fab, V domains shown)
VH: QVQLVQSGAEVKKPGASVKVSCKASGYTFTTDDINWVRQAPGQGLEWIGWIYPRDDRTKYNDKFKDRATLTVDTSSNTAYMELSSLRSEDTAVYYCSSLEDTYWGQGTLVTVSS
VL: DIVMTQSPDSLAVSLGERATINCKSSQSLLNSRTRKNYLAWYQQKPGQPPKLLIYWASTRESGVPDRFSGSGSGTDFTLTISSLQAEDVAVYYCKQSYNLYTFGQGTKVEIKR
notes: Humanized monovalent Fab; also called h4D5_19-1 parental Fab
EC50 [8]: 0.102 nM
EC50 [9]: 0.079 nM

B6: h13B1_10-1 Fab (VH-10 and VL-1) (Fab, V domains shown)
VH: QVQLVQSGAEVKKPGASVKVSCKASGYTFTGKWIEWVRQAPGQGLEWIGEILPGTGSTNYNEKFKGRATFTADSSTSTAYMELSSLRSEDTAVYYCLRSEDVWGQGTLVTVSS
VL: B5 VL with L100I, Y101P
notes: Humanized monovalent Fab; also called h13B1_10-1 parental Fab
EC50 [8]: 0.1 nM
EC50 [9]: 0.097 nM

B7: h4D5_14-1 Fab (VH-14 and VL-1) (Fab, V domains shown)
VH: B5 VH with R67K
VL: B5 VL
notes: Humanized monovalent Fab
EC50 [9]: 0.085 nM

B8: h13B1_10-1-ST Fab (VH-10 and VL-1-ST) (Fab, V domains shown)
VH: B6 VH
VL: B5 VL with S32T, L100I, Y101P
notes: also called 13B1-ST
EC50 [8]: 0.12 nM

B9: h13B1_10-1-NQ Fab (VH-10 and VL-1-NQ) (Fab, V domains shown)
VH: B6 VH
VL: B5 VL with N31Q, L100I, Y101P
notes: also called 13B1-NQ
EC50 [8]: 0.138 nM

B10: h13B1_9-1 Fab (VH-9 and VL-1) (Fab, V domains shown)
VH: B6 VH with N61A, E62Q, K65Q
VL: B5 VL with L100I, Y101P
notes: Humanized monovalent Fab
EC50 [9]: 0.101 nM

B11: MASP-3 mAb 2F5 (mouse-human chimeric IgG4) (antibody, V domains shown)
VH: EVQLQQPGAELVKPGASVKMSCKASGYTFTSYWITWVKQRPGQGLEWIGDIYPGSGSTNYNEKFKSKATLTVDTSSSTAYMQLSSLTSEDSAVYYCARRRYYATAWFAYWGQGTLVTVSS
VL: DIVMTQSQKFMSTSVGDRVSITCKASQNVGTAVAWYQQKPGQSPKLLISSASNRYTGVPDRFTGSGSGTDFTLTISNMQSEDVADYFCQQYNSYPLTFGAGTKLELKR
Inhibition of Rabbit Erythrocyte Lysis (IC50 nM), 10% factor D-depleted human serum [1]: 0.9 nM
EC50 [3]: 0.073 nM
EC50 [4]: 0.102 nM
binding affinity [5]: ≤ 500 pM
binding result [6]: no binding (tested: about 20 nM (log10 about 1.3))
binding result [7]: no binding (tested: about 20 nM (log10 about 1.3))
